# T1: endogenous p16^INK4A (human (endogenous in HEK293T)), P42771
# T1 chain: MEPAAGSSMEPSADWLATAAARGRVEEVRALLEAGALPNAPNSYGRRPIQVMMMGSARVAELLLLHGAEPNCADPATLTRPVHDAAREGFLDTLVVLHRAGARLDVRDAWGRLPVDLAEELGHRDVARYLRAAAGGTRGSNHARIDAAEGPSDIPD
# B1: endogenous p16^INK4A, P42771 1-156 (natural protein)
# chain: T1 chain
# B2: FLAG-p16^INK4A (wild type) (natural protein, human, UniProt P42771 9-156, looked up)
# chain: MEPSADWLATAAARGRVEEVRALLEAGALPNAPNSYGRRPIQVMMMGSARVAELLLLHGAEPNCADPATLTRPVHDAAREGFLDTLVVLHRAGARLDVRDAWGRLPVDLAEELGHRDVARYLRAAAGGTRGSNHARIDAAEGPSDIPD
# Columns and labels:
# [1] = molecular target: recombinant p16^INK4A (wild type) (Homo sapiens) (UniProt P42771); assay: non-reducing SDS-PAGE
# [2] = molecular target: T1, endogenous p16^INK4A (human (endogenous …)); assay: co-IP; conditions: remark: other sources report otherwise
# co-IP = molecular target: the molecule itself; assay: co-IP
molecule,measurement,setting,value
recombinant p16^INK4A (wild type) (from UniProt P42771 1-156) (natural protein),stoichiometry N,[1],2
B1,stoichiometry N,[2],2
B2,stoichiometry N,co-IP,2

# From PMC6812003 (Redox Biology, 2019)
